Assay results taken from patent publication US9187525B2, “Methods of treating ophthalmic diseases using NPR-B agonists” (Shire Orphan Therapies GmbH, dated 2015).
Numbered stars: 1 amine (or outer) side, 2 acyl side, 3 side chain; on linkers, the order of the positions; unused ones are H or OH. Square brackets hold non-standard residues; d marks the D form. * marks the point of attachment. Pmy = (S)-para-methoxy-phenylalanine, COc1ccc(C[C@H](N[*:1])C(=O)[*:2])cc1; Pro(trans-4-NH2) = O=C([C@@H]1C[C@@H](N[*:3])CN1[*:1])[*:2]; Sni = (S)-nipecotic acid, O=C([C@H]1CCCN([*:1])C1)[*:2]; Phe(4-NO2) = N[C@@H](Cc1ccc([N+](=O)[O-])cc1)C(=O)O; Pro(trans-4-Ph) = O=C(O)[C@@H]1C[C@@H](c2ccccc2)CN1; Phe(4-F) = N[C@@H](Cc1ccc(F)cc1)C(=O)O; Pro(3S-OH) = O=C(O)[C@H]1NCC[C@@H]1O; cisHyp = O=C(O)[C@@H]1C[C@H](O)CN1; dDap(Me2) = CN(C)C[C@@H](N)C(=O)O; Hyp = O=C(O)[C@@H]1C[C@@H](O)CN1; NMeL = CN[C@@H](CC(C)C)C(=O)O; β3hK = NCCCC[C@H](N)CC(=O)O; ΔPro = O=C(O)[C@@H]1C=CCN1; Ac6c = NC1(C(=O)O)CCCCC1; Octanoyl = CCCCCCCC(=O)*; Api = NC1(C(=O)O)CCNCC1; Dap = NC[C@H](N)C(=O)O; leu = not defined here; NHcHex = C1CCC(N*)CC1

T1: natriuretic peptide receptor-B (human)
T1 chain: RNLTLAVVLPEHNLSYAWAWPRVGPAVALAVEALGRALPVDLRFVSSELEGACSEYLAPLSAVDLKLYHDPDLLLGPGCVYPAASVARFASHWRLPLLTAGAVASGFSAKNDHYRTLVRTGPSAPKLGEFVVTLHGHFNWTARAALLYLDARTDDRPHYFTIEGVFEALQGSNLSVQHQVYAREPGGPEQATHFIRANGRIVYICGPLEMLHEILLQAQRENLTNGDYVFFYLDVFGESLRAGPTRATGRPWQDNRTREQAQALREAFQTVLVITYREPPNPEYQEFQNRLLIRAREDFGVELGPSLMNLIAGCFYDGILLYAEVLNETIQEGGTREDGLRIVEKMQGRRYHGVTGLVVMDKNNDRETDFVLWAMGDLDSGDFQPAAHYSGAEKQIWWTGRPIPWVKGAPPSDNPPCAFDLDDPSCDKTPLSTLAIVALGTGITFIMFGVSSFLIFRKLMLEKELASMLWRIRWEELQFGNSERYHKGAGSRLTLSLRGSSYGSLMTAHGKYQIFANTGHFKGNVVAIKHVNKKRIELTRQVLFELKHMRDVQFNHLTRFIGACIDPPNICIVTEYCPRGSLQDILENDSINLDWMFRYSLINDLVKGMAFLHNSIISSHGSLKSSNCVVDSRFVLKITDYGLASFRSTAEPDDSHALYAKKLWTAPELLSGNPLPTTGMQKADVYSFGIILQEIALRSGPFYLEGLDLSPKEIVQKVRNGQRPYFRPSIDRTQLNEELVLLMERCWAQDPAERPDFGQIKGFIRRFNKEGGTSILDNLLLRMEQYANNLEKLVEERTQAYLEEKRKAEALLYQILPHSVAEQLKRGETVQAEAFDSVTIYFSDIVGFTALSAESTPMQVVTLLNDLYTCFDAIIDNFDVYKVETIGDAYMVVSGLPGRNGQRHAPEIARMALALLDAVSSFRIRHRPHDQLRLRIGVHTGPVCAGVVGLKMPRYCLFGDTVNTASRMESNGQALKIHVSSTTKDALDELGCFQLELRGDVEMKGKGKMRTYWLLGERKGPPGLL

B1: JAL-1475 (peptide)
peptide: Octanoyl-[Sni]F[leu]L[Hyp][NMeL]DPI-NHMe
modifications: reading uncertain; also: printed as Occ-Sni-Phe-leu-Leu-Hyp-Nml-Asp-Pro-Ile-(NH-CH3)
B2: JAL-1483 (peptide)
peptide: Octanoyl-AF[leu]L[Hyp][NMeL]D[β3hK]I-NH2
modifications: not fully specified (some residues); printed as Occ-ala-Phe-leu-Leu-Hyp-Nml-Asp-Bhk-Ile-NH2; reading uncertain
B3: JAL-1482 (peptide)
peptide: Octanoyl-AF[leu]L[Hyp][NMeL]D[Dap]I-NH2
modifications: not fully specified (some residues); printed as Occ-ala-Phe-leu-Leu-Hyp-Nml-Asp-Udp-Ile-NH2; reading uncertain
B4: JAL-1463 (peptide)
peptide: Octanoyl-[dA]FXL[Pro(trans-4-NH2)][NMeL]DRI-NH2
modifications: not fully specified (some residues); printed as Occ-ala-Phe-dap(1464)-Leu-Tap-Nml-Asp-Arg-Ile-NH2
B5: JAL-1477 (peptide)
peptide: Octanoyl-AF[leu]L[Hyp][NMeL]D[Pro(3S-OH)]I-NH2
modifications: not fully specified (some residues); printed as Occ-ala-Phe-leu-Leu-Hyp-Nml-Asp-H3p-Ile-NH2; reading uncertain
B6: JAL-0657 (peptide)
peptide: XXFGLKLDRI
HELM: PEPTIDE1{[CCCCCC(=O)[*:2]].[O=C([C@H]1CCC[C@@H](N[*:1])C1)[*:2]].F.G.L.K.L.D.R.I.[am]}$$$$V2.0
SMILES: CCCCCC(=O)N[C@@H]1CCC[C@H](C(=O)N[C@@H](Cc2ccccc2)C(=O)NCC(=O)N[C@@H](CC(C)C)C(=O)N[C@@H](CCCCN)C(=O)N[C@@H](CC(C)C)C(=O)N[C@@H](CC(=O)O)C(=O)N[C@@H](CCCNC(=N)N)C(=O)N[C@H](C(N)=O)[C@@H](C)CC)C1
B7: JAL-1460 (peptide)
peptide: Octanoyl-[dA]FXL[Pro(trans-4-NH2)][NMeL]DRI-NH2
modifications: not fully specified (some residues); printed as Occ-ala-Phe-dap(6238)2-Leu-Tap-Nml-Asp-Arg-Ile-NH2
B8: JAL-1462 (peptide)
peptide: Octanoyl-[dA]FXL[Pro(trans-4-NH2)][NMeL]DRI-NH2
modifications: not fully specified (some residues); printed as Occ-ala-Phe-dap(3846)2-Leu-Tap-Nml-Asp-Arg-Ile-NH2
B9: JAL-1476 (peptide)
peptide: Octanoyl-AF[leu]L[Hyp][NMeL]D[cisHyp]I-NH2
modifications: not fully specified (some residues); printed as Occ-ala-Phe-leu-Leu-Hyp-Nml-Asp-Chy-Ile-NH2; reading uncertain
B10: JAL-0656 (peptide)
peptide: XXFGLKLDRI
HELM: PEPTIDE1{[CCCCCC(=O)[*:2]].[O=C1[C@@H](N[*:1])CCCCN1CC(=O)[*:2]].F.G.L.K.L.D.R.I.[am]}$$$$V2.0
SMILES: CCCCCC(=O)N[C@H]1CCCCN(CC(=O)N[C@@H](Cc2ccccc2)C(=O)NCC(=O)N[C@@H](CC(C)C)C(=O)N[C@@H](CCCCN)C(=O)N[C@@H](CC(C)C)C(=O)N[C@@H](CC(=O)O)C(=O)N[C@@H](CCCNC(=N)N)C(=O)N[C@H](C(N)=O)[C@@H](C)CC)C1=O
B11: JAL-1461 (peptide)
peptide: Octanoyl-[dA]FXL[Pro(trans-4-NH2)][NMeL]DRI-NH2
modifications: not fully specified (some residues); printed as Occ-ala-Phe-dap(6238)-Leu-Tap-Nml-Asp-Arg-Ile-NH2
B12: JAL-0654 (peptide)
peptide: XXFGLKLDRI
HELM: PEPTIDE1{[CCCCCC(=O)[*:2]].[O=C(C1CCCN([*:1])C1)[*:2]].F.G.L.K.L.D.R.I.[am]}$$$$V2.0
SMILES: CCCCCC(=O)N1CCCC(C(=O)N[C@@H](Cc2ccccc2)C(=O)NCC(=O)N[C@@H](CC(C)C)C(=O)N[C@@H](CCCCN)C(=O)N[C@@H](CC(C)C)C(=O)N[C@@H](CC(=O)O)C(=O)N[C@@H](CCCNC(=N)N)C(=O)N[C@H](C(N)=O)[C@@H](C)CC)C1
B13: JAL-1479 (peptide)
peptide: Octanoyl-AF[leu]L[Hyp][NMeL]D[ΔPro]I-NH2
modifications: not fully specified (some residues); printed as Occ-ala-Phe-leu-Leu-Hyp-Nml-Asp-Dhp-Ile-NH2; reading uncertain

Target: T1, natriuretic peptide receptor-B
Test: cell-based or functional assay

Row | Binder | EC50 group, cGMP in GTM-3 cells
1 | B1 | ≤ 5 µM
2 | B2 | ≤ 5 µM
3 | Octanoyl-[Sni]F[leu]L[Hyp][NMeL]DPI-OH (reading uncertain; also: printed as Occ-Sni-Phe-leu-Leu-Hyp-Nml-Asp-Pro-Ile-OH) [JAL-1474] | ≤ 15 µM
4 | Octanoyl-AF[Api]L[Hyp][NMeL]DPI-NH2 (also: lower-case ala: meaning not given here) [JAL-1451] | ≤ 5 µM
5 | B3 | ≤ 5 µM
6 | Octanoyl-[Sni][Phe(4-F)][leu]L[Hyp][NMeL]DRI-NH2 (reading uncertain; also: printed as Occ-Sni-Pff-leu-Leu-Hyp-Nml-Asp-Arg-Ile-NH2) [JAL-1487] | ≤ 1 µM
7 | Octanoyl-[dA]F[dDap(Me2)]L[Pro(trans-4-NH2)][NMeL]DPI-NH2 [JAL-1453] | ≤ 1 µM
8 | B4 | ≤ 1 µM
9 | B5 | ≤ 5 µM
10 | Octanoyl-AFLL[Pro(trans-4-NH2)][NMeL]DPI-NH2 (also: lower-case ala, leu: meaning not given here) [JAL-1450] | ≤ 5 µM
11 | Octanoyl-[Sni][Phe(4-NO2)][leu]L[Hyp][NMeL]DRI-NH2 (reading uncertain; also: printed as Occ-Sni-Nif-leu-Leu-Hyp-Nml-Asp-Arg-Ile-NH2) [JAL-1486] | ≤ 5 µM
12 | B6 | ≤ 15 µM
13 | Octanoyl-[Sni][Pmy][leu]L[Hyp][NMeL]DRI-NH2 (reading uncertain; also: printed as Occ-Sni-Pmy-leu-Leu-Hyp-Nml-Asp-Arg-Ile-) [JAL-1488] | ≤ 5 µM
14 | B7 | ≤ 5 µM
15 | B8 | ≤ 5 µM
16 | Octanoyl-[dA]F[dL]L[Hyp][NMeL]D[Pro(trans-4-NH2)]I-NH2 [JAL-1459] | ≤ 15 µM
17 | B9 | ≤ 5 µM
18 | Octanoyl-[dA]F[Api]L[Pro(trans-4-NH2)][NMeL]DPI-NH2 [JAL-1452] | ≤ 1 µM
19 | Octanoyl-[dA]F[Ac6c]L[Pro(trans-4-NH2)][NMeL]DRI-NH2 [JAL-1454] | ≤ 1 µM
20 | B10 | ≤ 15 µM
21 | B11 | ≤ 5 µM
22 | B12 | ≤ 15 µM
23 | B13 | ≤ 5 µM
24 | Octanoyl-[dA]F[dL]L[Hyp][NMeL]D[Api]I-NH2 [JAL-1458] | ≤ 5 µM
25 | Octanoyl-[dA]F[dL]L[Hyp][NMeL]D[Ac6c]I-NH2 [JAL-1457] | ≤ 15 µM
26 | Octanoyl-[Sni]F[dL]L[Hyp][NMeL]DP[NHcHex] [JAL-1464] | ≤ 5 µM
27 | Octanoyl-[dA]F[dL]L[Hyp][NMeL]D[Pro(trans-4-Ph)]I-NH2 [JAL-1456] | ≤ 15 µM
